Reference: US20210206825A1 (published 2021)
Substitutions are numbered along the chain they refer to. Blank lines part the entries; values can stand above or below the binder they belong to.

Assays:
[1] = biological target: human c-Met on cells (human, UniProt P08581 25-1390); assay: cell-based or functional assay
[2] = biological target: T1, recombinant human c-Met Fc chimera (human, UniProt P08581 16-932); assay: SPR
T1 construct: also called c-Met-Fc fusion protein; c-Met extracellular domain; not shown: Fc
Description: Serine was chosen to decrease the hydrophobicity of the resulting mutants. […] Fold change indicates fold change of the KD value of a variant when compared to the parent P114AR7P95-A3.

[3] = biological target: T2, human EGFR on cells (human, UniProt P00533 25-1210); assay: cell-based or functional assay
[4] = biological target: T2, human EGFR on cells; assay: cell-based or functional assay; remark: listed apart in the source

inhibition of c-Met phosphorylation in NCI-H292 cells (IC50) [1]: 610 nM
B1: P114AR5P74-A5 (designed binder, not shown: small tags and cut ends)
chain: LPAPKNLVVSRVTEDSARLSWTAPDAAFDSFWIRYDEVVVGGEAIVLTVPGSERSYDLTGLKPGTEYYVNILGVKGGSISVPLSAIFTT

Kd [2]: 0.4 nM
B2: ECB15 (SEQ ID NO: 145) (designed binder)
chain: LPAPKNLVVSEVTEDSARLSWDDPWAFYESFLIQYQESEKVGEAIVLTVPGSERSYDLTGLKPGTEYTVSIYGVHNVYKDTNMRGLPLSAIFTTAPAPAPAPAPLPAPKNLVVSRVTEDSARLSWTAPDAAFDSFWIRYFEFLGSGEAIVLTVPGSERSYDLTGLKPGTEYVVNIMGVKGGKISPPLSAIFTT
notes: kept as two constructs; also called ECB15 without Met; not shown: C-terminal poly-histidine tag

binding result [2]: no binding
B3: A3 R34S (designed binder)
chain: B2 chain with R138S
notes: In the context of ECB15; built as m66; not shown: C-terminal poly-histidine tag

Fold Change of KD vs parent [2]: 4.25 fold
Kd [2]: 1.7 nM
koff [2]: 0.000536 s⁻¹
kon [2]: 321000 M⁻¹ s⁻¹
B4: A3 P81S (designed binder)
chain: B2 chain with P185S
notes: as for B3

Fold Change of KD vs parent [2]: 74.5 fold
Kd [2]: 29.8 nM
koff [2]: 0.0086 s⁻¹
kon [2]: 289000 M⁻¹ s⁻¹
B5: A3 W32S (designed binder)
chain: B2 chain with W136S
notes: as for B3

Fold Change of KD vs parent [2]: 0.75 fold
Kd [2]: 0.3 nM
koff [2]: 0.00015 s⁻¹
kon [2]: 440000 M⁻¹ s⁻¹
B6: A3 K78S (designed binder)
chain: B2 chain with K182S
notes: Tested in the context of bispecific ECB15; not shown: C-terminal poly-histidine tag

Fold Change of KD vs parent [2]: 4.25 fold
Kd [2]: 1.7 nM
koff [2]: 0.00032 s⁻¹
kon [2]: 185000 M⁻¹ s⁻¹
B7: A3 G40S (designed binder)
chain: B2 chain with G144S
notes: as for B3

binding result [2]: no binding
B8: A3 M72S (designed binder)
chain: B2 chain with M176S
notes: as for B3

Fold Change of KD vs parent [2]: 1790 fold
Kd [2]: 717 nM
koff [2]: 0.0323 s⁻¹
kon [2]: 45100 M⁻¹ s⁻¹
B9: A3 F38S (designed binder)
chain: B2 chain with F142S
notes: as for B3

binding result [2]: no binding
B10: A3 I79S (designed binder)
chain: B2 chain with I183S
notes: as for B3

Fold Change of KD vs parent [2]: 68 fold
Kd [2]: 27.2 nM
koff [2]: 0.00512 s⁻¹
kon [2]: 188000 M⁻¹ s⁻¹
B11: A3 F36S (designed binder)
chain: B2 chain with F140S
notes: as for B3

Fold Change of KD vs parent [2]: 14.8 fold
Kd [2]: 5.9 nM
koff [2]: 0.00249 s⁻¹
kon [2]: 425000 M⁻¹ s⁻¹
B12: A3 N70S (designed binder)
chain: B2 chain with N174S
notes: as for B3

Fold Change of KD vs parent [2]: 9 fold
Kd [2]: 3.6 nM
koff [2]: 0.0012 s⁻¹
kon [2]: 329000 M⁻¹ s⁻¹
B13: A3 V68S (designed binder)
chain: B2 chain with V172S
notes: as for B3

Fold Change of KD vs parent [2]: 6.75 fold
Kd [2]: 2.7 nM
koff [2]: 0.00127 s⁻¹
kon [2]: 475000 M⁻¹ s⁻¹
B14: A3 L39S (designed binder)
chain: B2 chain with L143S
notes: as for B3

Phospho-EGFR IC50 (A431 cells, Tyr1173) [3]: > 2500 nM
B15: P53A1R5-17 (designed binder, not shown: small tags and cut ends)
chain: LPAPKNLVVSEVTEDSLRLSWADPHGFYDSFLIQYQESEKVGEAINLTVPGSERSYDLTGLKPGTEYTVSIYGVHNVYKDTNMRGLPLSAEFTT

Phospho-EGFR IC50 (A431 cells, Tyr1173) [3]: 184 nM
B16: P54AR4-17 (designed binder, not shown: small tags and cut ends)
chain: B15 chain with A22T, D23Y, P24D, H25R, G26D, F27G

Phospho-EGFR IC50 (A431 cells, Tyr1173) [3]: 170 nM
B17: P54AR4-48 (designed binder, not shown: small tags and cut ends)
chain: B15 chain with A22D, H25R, D29E

Phospho-EGFR IC50 (A431 cells, Tyr1173) [3]: 18 nM
B18: P54AR4-83 (designed binder, not shown: small tags and cut ends)
chain: B15 chain with A22D, H25W, G26A, D29E

Phospho-EGFR IC50 (A431 cells, Tyr1173) [3]: 141 nM
B19: P54AR4-73 (designed binder, not shown: small tags and cut ends)
chain: B15 chain with A22T, D23W, H25Y, G26A, F27D, Y28L

Phospho-EGFR IC50 (A431 cells, Tyr1173) [3]: 179 nM
B20: P54CR4-31 (designed binder, not shown: small tags and cut ends)
chain: LPAPKNLVVSEVTEDSLRLSWTAPDAAFDSFLIQYQESEKVGEAINLTVPGSERSYDLTGLKPGTEYTVSIYGVLGSYVFEHDVMLPLSAEFTT

pEGFR inhibition in H292 cells (IC50) [4]: 13.6 nM
B21: ECB95 (designed binder, not shown: small tags and cut ends)
chain: MLPAPKNLVVSEVTEDSARLSWDDPWAFYESFLIQYQESEKVGEAIVLTVPGSERSYDLTGLKPGTEYTVSIYGVHNVYKDTNIRGLPLSAIFTTAPAPAPAPAPLPAPKNLVVSRVTEDSARLSWTAPDAAFDSFWIRYFEFVGSGEAIVLTVPGSERSYDLTGLKPGTEYVVNILGVKGGSISPPLSAIFTT

pEGFR inhibition in H292 cells (IC50) [4]: 16.6 nM
B22: ECB97 (designed binder, not shown: small tags and cut ends)
chain: B21 chain with V144L, G178S

pEGFR inhibition in H292 cells (IC50) [4]: 432 nM
B23: ECB109 (designed binder, not shown: small tags and cut ends)
chain: B21 chain with W26H, V144L, G178S

pEGFR inhibition in H292 cells (IC50) [4]: 367 nM
B24: ECB106 (designed binder, not shown: small tags and cut ends)
chain: B21 chain with W26H, V144L, S183K

pEGFR inhibition in H292 cells (IC50) [4]: 5.1 nM
B25: ECB94 (designed binder, not shown: small tags and cut ends)
chain: B21 chain with V144L, S183K

pEGFR inhibition in H292 cells (IC50) [4]: 814 nM
B26: ECB108 (designed binder, not shown: small tags and cut ends)
chain: B21 chain with W26H, G145S, S146K, E148D

pEGFR inhibition in H292 cells (IC50) [4]: 812 nM
B27: ECB107 (designed binder, not shown: small tags and cut ends)
chain: B21 chain with W26H

pEGFR inhibition in H292 cells (IC50) [4]: 4.2 nM
B28: ECB15 (designed binder, not shown: small tags and cut ends)
chain: B21 chain with I84M, V144L, L177M, S183K

pEGFR inhibition in H292 cells (IC50) [4]: 24.7 nM
B29: ECB96 (designed binder, not shown: small tags and cut ends)
chain: B21 chain with G145S, S146K, E148D
